The values below come from PMC3665681.

The assay concerns the target A3B3 of Thermus thermophilus VoV1 (His-tagged A3B3, expressed without a rotor subunit) (T. thermophilus) (UniProt Q56403).
UniProt Q56403, sequence (Q56403 whole entry C28S/S232A/T235S/C255A, chain 1 of 2): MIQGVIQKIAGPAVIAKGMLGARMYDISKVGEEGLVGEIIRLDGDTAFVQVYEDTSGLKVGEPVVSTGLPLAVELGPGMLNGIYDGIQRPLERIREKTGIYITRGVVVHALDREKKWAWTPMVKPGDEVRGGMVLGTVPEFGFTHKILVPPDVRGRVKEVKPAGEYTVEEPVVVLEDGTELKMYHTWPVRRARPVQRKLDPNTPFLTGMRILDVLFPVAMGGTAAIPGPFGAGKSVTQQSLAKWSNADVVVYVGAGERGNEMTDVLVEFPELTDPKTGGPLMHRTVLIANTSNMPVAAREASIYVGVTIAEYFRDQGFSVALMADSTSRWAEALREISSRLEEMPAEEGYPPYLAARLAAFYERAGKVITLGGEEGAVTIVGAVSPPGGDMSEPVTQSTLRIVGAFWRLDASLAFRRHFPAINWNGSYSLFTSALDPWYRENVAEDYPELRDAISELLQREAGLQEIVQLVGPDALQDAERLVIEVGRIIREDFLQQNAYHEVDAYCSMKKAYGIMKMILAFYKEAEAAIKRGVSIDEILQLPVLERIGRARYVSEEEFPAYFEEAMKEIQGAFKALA
UniProt Q56403, sequence (Q56404 whole entry C264S, chain 2 of 2, further chain): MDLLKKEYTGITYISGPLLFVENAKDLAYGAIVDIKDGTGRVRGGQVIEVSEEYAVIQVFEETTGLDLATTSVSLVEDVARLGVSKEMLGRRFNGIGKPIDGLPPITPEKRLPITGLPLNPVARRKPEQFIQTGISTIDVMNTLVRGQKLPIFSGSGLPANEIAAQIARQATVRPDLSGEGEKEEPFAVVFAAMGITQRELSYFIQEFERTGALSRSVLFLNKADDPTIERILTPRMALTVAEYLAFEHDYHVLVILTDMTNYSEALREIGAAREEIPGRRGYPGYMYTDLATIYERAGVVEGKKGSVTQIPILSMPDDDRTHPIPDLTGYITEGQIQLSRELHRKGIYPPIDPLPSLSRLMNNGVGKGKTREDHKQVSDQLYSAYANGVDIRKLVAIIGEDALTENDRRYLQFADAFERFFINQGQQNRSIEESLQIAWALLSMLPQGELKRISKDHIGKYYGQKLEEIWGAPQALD

Regarding “FliJ of Salmonella enterica serovar Typhimurium (from UniProt P0A1K1 1-147) (natural protein)”, the ATPase turnover rate of A3B3J (A3B3 alone ∼4.0 s^−1); 25°C, 4 mM MgATP came out at 7 s⁻¹.
